# Results published in the nanobody polyreactivity screen of Harvey et al. (2022).
# Test: yeast display, Sf9 membrane polyspecificity reagent, FACS + sequencing; frameworks hold sequencing errors
# In short: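 A synthetic nanobody library was expressed on Saccharomyces cerevisiae BJ5465 by galactose induction for 36–48 hours. The library was stained for 1 hour at 4 °C with 10% biotinylated, detergent-solubilized Sf9 membrane reagent and enriched with streptavidin microbeads before FACS. Low and high (top ~1%) gates were set on anti-HA fluorescence for expression and streptavidin fluorescence for reagent binding, and each polyreactivity label reflects the gate of origin.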
row,Sequence,polyreactivity (PSR sort gate)
1,QVQLVESGGGLVQAGGSLRLSCAASGFTFRVYAMGWYRQAPGKERELVAAITQRGGSTYYADSVKGRFTISRDNSKNTVYLQMNRLNTEDTAVYYCNKFAGQPTYDYWGQGTQVTVSS,high polyreactivity
2,QVQLVESGGGLVQAGGSLRLSCAASGSTFYTYAMGWYRQAPGKECELVAAISNRGGSTRYADSVKGRFTISRDNAKNTVYLQMNSLKPEDTAVYYCAAQRIRRGWYGYWGPGTQVTVSS,high polyreactivity
3,QVQLVESGGGLVQAGGSLRLICDASGRIFATNAIGWYRQAPGKERELVATITRSAGRTYYADSVKGRFTISRDNAKNTVYLQMNSLKPEDTAVYYCAASYWDTEPGYREYDYWGQGTQVTVSS,low polyreactivity
4,QVQLVESGGGLVQAGGSLRLSCAASGRIFYPYAMGWYIQAPGKEREFVATIRARCGDSTSYADSVKGRFTISRDIAKNTVYLQMNSLKPEDTAVYYCAALFYTYRWRYYVYHMDYWGQGTQVTVSS,low polyreactivity
5,QVKLVESGGGLVQAGGSLRLSCAASGSIFRYYAMGWYRQAPGKERELVAAMTASGGRTHYADSVKGRFTISRDNAKNTVYLQMNSLKLEDTAVYYCAADLYYAWYWKQHYDYCGQGTQVTVSS,high polyreactivity
6,QVQLVESGGGLVQAGGSLRLSCAASGRIFYSYAMGWYRQAPGKERELVAAIRRGGSTNYADSVKGRFTISRDNAKKTVYLQMNSLKPEDTAVYYCAAKGYKGYFLYNYWGQGTQVTVSS,high polyreactivity
7,QVQLVESGGALVQAGGSLRLSCAASGSIFDDNAMGWYRQAPGKERELVAAITGSGGRTYYADSVKGRFTISRDNAQNTVDLQMNSLKPEDTAVYYCAAQGAYNYFNAWYGYEYWGQGTQVTVSS,high polyreactivity
8,QVKLVESVGGLVQAGGRLRLSCAASGSILYFNAMGWYRQAPGKERELVAAISKSGGRTYYADSVKGRFTISRDNAKNTVYLQMNCLKPEDTAVYYCAKDNYWGQGTQVTVSS,high polyreactivity
9,QVQLVESGGGLVQAGGSLRLSFAASGRIFLYNTMGWYRQAPGKERELVARISWSGGSTKYADSVKGRFTISRDNAKNTVYLQMNSLKPEDTAVYYCNAGYFTEYNSWGQGTQVTVSS,high polyreactivity
10,QFQIEESGGGLVQAGGSLRLSCAASGNTFYWNAMGWYRQAPGKDRELVAAISTTGVSTYYADSVKGRFTISRDNAKITVYLQMNSLKPEDTAVYYCAAEIIGYHTIYDYWGQGTQVTVSS,low polyreactivity
11,QDQPVESGGGLVQAGGRLRLSCAASGIICSGYAMGWYRQAAGKERELVAAISNDGTRTYYADSVKGRFTISRDNAKNTVYLQMNSLKPEDTAVYYCAAYSRLNVLGYDYWGQGTQVTVSS,high polyreactivity
12,QVQLVESGGGLVQAGGSLRLSCAASGSIFVDYAMGWSRQAPGKERELVAAITSGGRTNYADSVKGRFTISRDNAKNTVYLQMNSLKPEDTAVYYCNKTRYTNYYTTTFDYWGQGTQVTVSS,low polyreactivity
13,QVQLVESGGGLVQAGGSLRLSCAASGFTFGYYAMGWYRQAPGKEREVVAAIRGGGRTNYADSVKGRFTISRDNAKITVYLQMNSLKPEDTAVYYCNADRLRTLRGDDWGQGSQVTVSS,low polyreactivity
14,QVQLVESRGGLVQAGGSLRLTCAASGSTFAPNTMGWYRQAPGQERELVARITSSDGSTTYADSVKGRFTISRDNAKTTVYLQMNSLKPEHTAVYYCAADYGRRWGYDYWGQGTQVTVSS,low polyreactivity
15,QVQLVESGGGLVQAGGSLRLSCAASGLIFGWNAMGGYRQAPGKERELVAAINSGGITNYADSVKGRFTISRDNAKNTVYLQMYSLKPDDTEVYYCAADVVQYGLDWYGEEYESWGQGTQVTVSS,low polyreactivity
16,QVQLVESGGGLVQAGGSLRLSCAASGFIFGRYAMGWDREAPGKERELVAGIRSSGGSTYYADSVKGRFTISRDNAKNTVYLQMNSLKPEDTAVYYCAARTYGQSLDYWGQGTQVTVSS,high polyreactivity
17,QVQLVESGGGLVQAGGSLRLSCASSGIILYYYVMGWYRQAPGKERELVAAINRSGTSTYYADSVKGRFTISRDNAKNTVYLQMNSLKPEDTAVYYCAAERYWSGGVFDYDYWGQGTQVTVSS,high polyreactivity
18,QVQLVESGGGLVQAGGSLRLSCAASGFIYGLYAMGWYRQAPGKERELVASISRRGGSTYSADSVKGRVTISRDNAKNTVYLQMNSLKPEDTAVYYCAVDIVSIRGYTYGYWGQGTQVTVSS,high polyreactivity
19,QVQLVESGGGLVQAGGSLRLSCAASGSTFAVYAMGWYRQEPGKERELVAVISRGANTNYADSVKGRFTISRDNAKNTVYLQMNSLIPEDTAVYYCAAPSFFTHRGRFDYWGQGTQVTVSS,low polyreactivity
20,QVQLVESGGGLVQAGGSLRLSCAASGGIFVPYAMGWYRQAPGKERELVAGITSGGSTNYADSVKGRFTISRDNAKNTVYLQMNSLKPVDTAVYYCAARRRPGGRYKSRVWYDYWGQGTQVTVSS,high polyreactivity
21,QVQLVESGGGLVQAGGSLRLSCAASGRIFPFYAMGWYRKAPGKERELVARITLSGGSTYYADSVKGRFTISRDNAKNTVYLQMNSLKPEDTAVYYCAADRTSWSVLDFDYWGQGTQVTVSS,low polyreactivity
22,QVQLVESGGGLVQAGGSLRLSCAASGNTFGINAMGWYRQAPGKERELVASISFTGSSTYYADSVKGRFTISRDNAKNTVYLQMNSLKPEDTAVYYCNRDRITLYEYDYWGQGTQVTVSS,low polyreactivity

row,Sequence,polyreactivity (PSR sort gate)
1,QVQLVESGGGLVQAGGSLRLSCAASGIICPENAMGWYRQAPGKERELVAAISKSGGRTYYADSVKGRFTISRDNAKNTVYLQMNSLKPEDTAVYYCAKVPYAYSRDRSAEDSWGQATQVTVSS,high polyreactivity
2,QVQLVESGGGLVQAGGSLRLSCAASGRIFYAYAMGWYRQAPGKERELVAAITFSGGSTYADSVKGRFTISRDNAKNTVYLQMNSLKPEDTAVYYCAADFGRHPRDYDYYWGQGTQVTVSL,low polyreactivity
3,QVQLVESGGGLVQAGGSLRLSCAASGGIFYGNVMGWYRHAPGKERELVADITSVGSTYYADSVKGRFTISRDNAKNTVYLQMNSLKPEDTAVYYCAAETYLVFSTWYGYDYCGQGTQVTVSS,low polyreactivity
4,QVQLVDSGGGLVQAGGSLRLSCAASGRTFYYNTMGWYRQAPGKERELVAAITYRGGRTYYADSVKGRFTISRDNAKNTVYLQMNSLKPEDTAVYYCAADWRGPGRTYKINKYDYWGQGTQVTVSS,high polyreactivity
5,QVQLVESGGGLVQAGGSLRLSCAASGIIYGRYAMGWYRQAPGKERELVAAINASGGSTYYADSVKGRFTISRDNAKNTVYLQMNSLKPEDSAVYYCATRSTRSRTSGYYYWGQGTQVTVSS,high polyreactivity
6,QVQLVESGGGLVQAGGSLRLSCAASGRTFYIYAMGWYRQAPGKERELVAAISTTGGRTYYADSVKGRFTISRDNAKNTVYLQMNSLKPVDTAVYFCAAPARTRYDYWGQGTQVTVSS,high polyreactivity
7,QVQLVESGGGLVQAGGSLRISCAASGRTLGGYTMGWYRQAPGKERELVAAITGSGSNTYYADSVKGRFTISRDNAKNTVYLQMNSLKPEDTAVYYCAAPYSYRTWYPYGYWGQGTQVTLSS,high polyreactivity
8,QVHLVESGGGLVQAGGSLRLSCAASGSILSDNTLGWYRQAPGKERELVAAISRSGGTTYYADSVKGRFTISRDNAKNTVYLQMNSLKPEDTAVYYCAARYYYRYNYWGQGTQVTVSS,high polyreactivity
9,QVQLVESGGGLVQAGGSLRLSCAASGRIFFANAMGWYRQAPGKERELVAAISYSGTSTYYADSVKGRFTISRDNAKNSVYLQMNSLKPEDTAVYYCNAGRYIKMGDWGQGTQVTVSS,high polyreactivity
10,QVQLVESGGGLVQAGGSLRLSCAASGIIFRRYAMGWSRQAPGKERELVAAITHRGSTYYADSVKGRFTISRDNAKNTVYLQMNSLKPEDTAVYYCAADGFTRWGRYDYWGQGTQVTVSS,high polyreactivity
11,QVQLVESGGGLVQAGGSLRLSCAASGRTLYLNAMGWYRQAPGKERELVASISRGGGSTYYADSVKGRFTISRDNAKYTVYLQMNSLKPEDTAVYYCAATGAGDYDYWGQGTQVTVSS,low polyreactivity
12,QVQLVESGGGLVQAGGSLRLSCAASGRTFRGYAMGWYRQAPGKERELVAAISVTGSSTNYADSVKGRFTISRDNAKNTVYLQMNSLKPEDTAVYYCNAKRVRYSLSYDYWGQGTQVTVSS,high polyreactivity
13,QVQLVESGGGLVQAGGSLRLSCAASGRILRGNAMGWYRQAPGKERELVADINYSDGSTYYADSVKGRFTISRDNAKNTVYLQMNSLKPEDTAVYYCAADLRITSYNSWGHGTQVTVSS,low polyreactivity
14,QVQLVETGGCLVQAGGSLPLSCAASGRTFRPYAKGLYRPAPGKERELVAAITRGGSTKYADSVKGRFTISRDNAKNTVYLQMNSLKPEDTAVYYCAPDYSVYHRLFDYWGQGTQVTVSS,high polyreactivity
15,QVQLVESGGGLVQAGGSLRLSCAASGITFIRNGMGWYRQAPGKERELVAAISDTGARTYYADSVKGRFTISRDNAKNTVYLQMNSLKPEDTAVYYCAAEVRTRYLYSFRWYDYWGQGTQVTVSS,low polyreactivity
16,QVQLVESGGGLVQAGGSLRLSCAASGFIITSYAMGWYRQAPGKERELVAAINGGGSTYYADSVKGRFTISRDNAKNTVYLQMNSLKPEDTAVYYCAAKFRAGRSSYYWGQGTQVTVSS,high polyreactivity
17,QVQLVESGGGLVQAGGSLRLSCAASGFTIVYYAMGWYRQAPGKERELVAAISATGGRTYYADSVKGRFTISRDNAKNTVYLQMNSLKPEDTAVYYCAVGLSGASSGMGYWGQGTQVTVSS,high polyreactivity
18,QVQLVESGGGLVQAGGSLRLSCAASGSIFGGYTMGWYRQAPGKERELVAAISRRGGNTYYADSVKGRFTISRDNAKNTVYLQMKSLKPEDTAVYYCAVRWPSARIPVKLDYWGQGTQVTVSS,high polyreactivity
19,QVQLVESRGGLVQAGGSLRLSSAASGFTFHGNAMRWYRQAPGKERQLVAGISSSGASTYYADSVKGRFTISRDNAKNTVYLQMNILKPEDTAVYYCAVRYYGRYLRYNYCGQGTQVTVSS,high polyreactivity
20,QVQLVESGGGLVQAGGSLCLSCAASGFIFEFYTMGWYRQAPGKERELVAAITNGDSTNYADSVKGRFTISRDNAKNTVYLQMNSLKPEDTAVYYCAADGKGETEYSSHPGWAFDYWGQGTQVTVSS,low polyreactivity
21,QVQLVESGGGLVQAGGSLRLSCAASGSIFTYNAMGWYRQAPGKERELVAAISWSGGSRYYADSVKGRFTISRDNAKNTVYLQMNSLKPVDTAVYYCAAALQYRLYFYPKYDYWGQGTQVTVSS,high polyreactivity
